Holding throughout (settings): both partners purified
One experiment addresses ovalbumin (Gallus gallus (species assumed), UniProt P01012). Put plainly: ELISA; 250 ng antigen per well coated overnight at 4 °C in PBS; serial dilutions of antibody 1 h at 37 °C; detected with anti-human IgG Fc-HRP. For orientation: In an ELISA, binding on a coated surface is turned into a signal by an enzyme label.
For experiment [1], the target named is T1, MPER peptide PDT-081 (HIV-1, strain  (synthetic …)).
T1 construct: also called full-length MPER
Put plainly: BLI; Octet RED96; biotinylated peptide PDT-081 (7.5 μg/ml) on streptavidin biosensors; serial dilution of Fab, 5 min association, 5 min dissociation; PBS/0.002% Tween 20/0.01% BSA; KD as koff/kon.
T1 sequence (P05877 655-684): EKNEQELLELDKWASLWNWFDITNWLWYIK

In experiment [2] the target is T2, MPER peptide PDT-081 (HIV-1, strain  (synthetic …)).
T2 construct: also called PDT081pept
Put plainly: BLI; Octet RED96; biotinylated MPER peptide PDT-081 (7.5 ug/ml) captured on streptavidin biosensors; serial dilution of Fab, 5 min association, 5 min dissociation; PBS/0.002% Tween 20/0.01% bovine serum albumin; KD = koff/kon from five sensorgrams of the dilution series. Background: BLI is a label-free optical method that tracks binding on a fibre tip over time.
T2 sequence (P05877 655-684): as above

In experiment [3] the target is T2, MPER peptide PDT-081. The description is as above. This is another data set of the same source.
Experiment [4] addresses T2, MPER peptide PDT-081. Described as above. The source holds these as a separate data set.
In experiment [5] the target is T1, MPER peptide PDT-081. Put plainly: ELISA; 250 ng antigen per well coated overnight at 4 °C in PBS; serial dilutions of antibody 1 h at 37 °C; detected with anti-human IgG Fc-HRP.
Experiment [6] deals with T2, MPER peptide PDT-081. Put plainly: BLI; Octet RED96; biotinylated MPER peptide PDT-081 (7.5 ug/ml) captured on streptavidin biosensors; serial dilution of Fab, 5 min association, 5 min dissociation; PBS/0.002% Tween 20/0.01% bovine serum albumin; KD = koff/kon from five sensorgrams of the dilution series. The source holds these as a separate data set.
Experiment [7] has as its target T2, MPER peptide PDT-081. The experiment is described as above. This is another data set of the same source.
For experiment [8], the target named is T2, MPER peptide PDT-081. The experiment is described as above. This is another data set of the same source.

Results on twelve molecules are retold here after paper PMC6879610 (Nature Communications, 2019).

Positions count from the first letter of the chain named.

B1: 4E10 (antibody, V domains shown)
VH: QVQLVQSGAEVKRPGSSVTVSCKASGGSFSTYALSWVRQAPGRGLEWMGGVIPLLTITNYAPRFQGRITITADRSTSTAYLELNSLRPEDTAVYYCAREGTTGWGWLGKPIGAFAHWGQGTLVTVSS
VL: EIVLTQSPGTQSLSPGERATLSCRASQSVGNNKLAWYQQRPGQAPRLLIYGASSRPSGVADRFSGSGSGTDFTLTISRLEPEDFAVYYCQQYGQSLSTFGQGTKVEVK
notes: also called BnAb 4E10; mature 4E10
For B1, the binding result with ovalbumin is reported as “binds”.

B2: 4E10 L100cF (whole antibody) (antibody, V domains shown)
VH: B1 VH with L107F
VL: B1 VL
As to B2, the binding result in the experiment with ovalbumin was “binds”.

B3: PGZL1 gVmDmJ Fab (Fab, V domains shown)
VH: QVQLVQSGAEVKKPGSSVKVSCKASGGTFSSYAISWVRQAPGQGLEWMGGIIPIFGTANYAQKFQGRVTITADKSTSTAYMELSSLRSEDTAVYYCAREGEGWFGKPLRAFEFWGQGTVITVSS
VL: not shown
notes: also called inferred germline PGZL1 Fab
What is called Kd is a measure of binding affinity in units of concentration. Consider B3, for which, in the experiment with MPER peptide PDT-081 [1], the Kd came to 64.4 nM.

B4: PGZL1 gVgDmJ Fab (Fab, V domains shown)
VH: B3 VH with K106E
VL: not shown
Turning to B4, the Kd in the experiment with MPER peptide PDT-081 [1] turned out to be 148 nM. This Kd lies about 2.3-fold higher than the previous one.

B5: PGZL1 gVmDmJ Fab (Fab, V domains shown)
VH: B3 VH
VL: not shown
As usually defined, the koff is a measure of how fast the partners let go of each other. High values mean a short-lived complex, low ones a long-lived complex. The kon is the second-order rate constant of association. Higher therefore signals fast association. Consider B5, for which, in the experiment with MPER peptide PDT-081 [2], the off-rate constant (koff) turned out to be 0.000991 s⁻¹ and the kon is 15400 M⁻¹ s⁻¹.

B6: PGZL1 gVgDgJ Fab (Fab, V domains shown)
VH: B3 VH with K106E, E112D, F113V
VL: not shown
B6 registered a dissociation constant Kd in the experiment with MPER peptide PDT-081 [1] of 938 nM.

B7: PGZL1 gVgDmJ Fab (Fab, V domains shown)
VH: B3 VH with K106E
VL: not shown
For the molecule B7, in the experiment with MPER peptide PDT-081 [3], the off-rate (koff) came to 0.00197 s⁻¹ and the kon was found to be 13300 M⁻¹ s⁻¹.

B8: PGZL1 gVgDgJ Fab (Fab, V domains shown)
VH: B3 VH with K106E, E112D, F113V
VL: not shown
As for B8, in the experiment with MPER peptide PDT-081 [4], the off-rate constant (koff) amounted to 0.00802 s⁻¹ and the kon is 8550 M⁻¹ s⁻¹.

B9: PGZL1 gVgDgJ IgG (antibody, V domains shown)
VH: B3 VH with K106E, E112D, F113V
VL: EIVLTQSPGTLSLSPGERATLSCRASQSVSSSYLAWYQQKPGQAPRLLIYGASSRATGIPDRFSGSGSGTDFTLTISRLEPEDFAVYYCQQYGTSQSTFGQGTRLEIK
For B9, the “fold increase in EC50” value in the experiment with MPER peptide PDT-081 [5] is 369 fold.

B10: H4K3_SFS28EPE Fab (Fab, V domains shown)
VH: KVQLVQSGAELKKPWSSVRVSCKASGGEPESYAFNWVRQAPGQRLEWLGGIVPLVSSTNYAQRFRGRVTISADRSTSTVYLEMTGLTSADTAVYFCAREGEGWFGRPLRAFEFWGQGTLVTVST
VL: EIVLTQSPGTFALSPGERATLSCRASQSVSGGALAWYQQKAGQAPRLLIYDTSGRATGVPGRFSGSGSETDFSLTISRLEPEDFAVYYCQQYGTSQSTFGQGTRLETR
For the molecule B10, in the experiment with MPER peptide PDT-081 [6], the equilibrium dissociation constant (Kd) is 15.1 nM, the koff came out at 0.000539 s⁻¹ and the on-rate (kon) worked out at 35700 M⁻¹ s⁻¹.

B11: H4K3_RS73PE Fab (Fab, V domains shown)
VH: B10 VH with E28S, P29F, E30S, R74P, S75E
VL: B10 VL
Consider B11, for which, in the experiment with MPER peptide PDT-081 [7], the dissociation constant (Kd) amounted to 12.8 nM, the koff turned out to be 0.000509 s⁻¹ and the on-rate constant (kon) amounted to 39700 M⁻¹ s⁻¹.

B12: H4K3_5M Fab (Fab, V domains shown)
VH: B10 VH with R74P, S75E
VL: B10 VL
In the case of B12, in the experiment with MPER peptide PDT-081 [8], the dissociation constant (Kd) worked out at 23.4 nM, the off-rate constant (koff) was 0.000674 s⁻¹ and the kon stood at 28800 M⁻¹ s⁻¹.
